Test in all cases: SPR; Biacore T200; integrin (approx. 1000 RU) or TGFβRII (approx. 400 RU) amine-coupled to CM5 chip; galectin-3 2-fold serial dilutions injected (19.5-5000 nM integrins, 156.3-20000 nM TGFβRII), 30 μl/min, 20 °C, contact 120 s; HBS-P+ pH 7.4 ±1 mM MnCl2; steady-state fit, one-site specific binding; minimum number of binding sites = maximum response/Rmax
A general note: Surface plasmon resonance follows binding to a sensor surface in real time, without labels.

Experiment [1] concerns the target recombinant human integrin αvβ6 (glycosylated) (human) (UniProt P06756).
Experiment [2] concerns the target recombinant human integrin αvβ1 (glycosylated) (human) (UniProt P06756).
The target of experiment [3] is recombinant human integrin αvβ5 (glycosylated) (human) (UniProt P06756).

Experimental findings from article PMC11134550 are described below.

Consider “recombinant human galectin-3 (expressed and purified for SPR) (from UniProt P17931 1-250) (natural protein)”, for which the stoichiometry N (individual galectin-3 proteins) was > 8 in experiment [1], > 16 in experiment [2] and > 16 in experiment [3]. Also, the binding response relative to αvβ6 in experiment [2] and in experiment [3] was 2 fold each time.
